# Assay results from US20220226469A1.
# Numbering of substitutions follows the chain as printed.
# B1: SIRP6 (antibody, V domains shown)
# VH: QIQLVQSGPELKKPGETVKISCKASGYTFTDYGVNWVKQGPGKDLQWMGWVNTNTRESTYVEDFKGRFAFSLETSASTAYLQINNLKNEDSSTYFCARGAYDAYYYYYGMDYWGQGTSVTVSS
# VL: DIQMTQSPASLSASVGETVTITCRASENIYSYLTWYKQKQGKSPQLLVYNAKTLAEGVPSRFSGSGSGTQFSLKINSLQPEDFGSYYCQHHYGSPRTFGGGTKLEIK
# B2: SIRP23 (antibody, human IgG4 S228P, kappa, V domains shown)
# VH: EVQLQQSGPDLVKPGASVKISCKASGYSFTDYFLNWVKQSHGKSLEWIGRINPYNGDSFINQNFRDKATLTVDKSSTTAHMDLLSLTSEDSAIYYCGRGGYDGYFIAYFDYWGQGSLVTVSA
# VL: DIKMTQSPSSMYASLGQRVTITCKASQDINSHLSWFQEKPGKSPKTLIYRANRLADGVPSRFSGSGSGQDYFLTISSLEYEDVGIYYCLQYDEFPYTFGGGTKLEIKR
# B3: SIRP4 (antibody, V domains shown)
# VH: B2 VH
# VL: DIKLTQSQSSMYSSLGQRVTITCKASQDINSHLSWFQEKPGKSPKTLIYRANRLADGVPSRFSGSGSGQDYFLTISSLEYEDVGIYYCLQYDEFPYTFGGGTKLEIK
# B4: SIRP3 (antibody, mouse IgG1, kappa, V domains shown)
# VH: EVQLQQSGPEVVKPGASVKMSCKASGYTFTSYVMHWVKQKPGQGLEWIGYINPYNDGPKYNEKFKGKATLTSDKSSSTAYMELSSLTSEDSAVYFCARWDYFNSASGFAFWGQGTLVTVSA
# VL: EIVLTQSPTTMAASPGEKITIICSASSIIGSDFLHWYQQRPGFSPKFLIYRTSILASGVPTRFTGSGSGTSYSLTIGTMEAEDVATYYCQQGSGLPLTFGSGTKLEMKR
# B5: SIRP5 (antibody, V domains shown)
# VH: QVQLQQSAAELARPGASVKMSCKASGYTFTSYTMHWVKQRPGQGLEWIGYINPTIGYTEYNQKFKDKTTLTADKSSSTAYMQLSSLTSEDSAVYYCVRLVITSVLGRAMDYWGQGTSVTVSS
# VL: QIVLTQSPALMSASPGEKVTMTCSASSSVSYMYWFQQKPRSSPKPWIYLTSNLASGVPARFSGSGSGTSYSLTISSMEAEDAATYYCQQWSGNPFTFGSGTKLEIK
# B6: SIRP1 (antibody, mouse IgG1, kappa, V domains shown)
# VH: QVQLQQSGAELMKPGASVKISCKATGYSFTKYWIEWVKQRPGHGLEWIGEILPGSVITNYNEKFKGKATFTADTSSNTVYMQLSSLTSEDSAVYYCTKWGLYDSDDGVDYWGQGTTLTVSS
# VL: ENVLTQSPAIMSASLGEKVTMSCRASSGVNYMYWYQQKSDASPKLLIYYTSILAPGVPARFSGSGSGNSYSLTISSMEGEDAATYYCQQFTSSPYTFGGGTKLEIKR
# B7: SIRP12 (antibody, human IgG4 S228P, kappa, V domains shown)
# VH: QVQLVQSGAEVKKPGASVKVSCKASGYSFTDYFLNWVRQAPGQGLEWMGRINPYNGDSFINQNFRDRVTMTRDTSTSTVYMELSSLRSEDTAVYYCARGGYDGYFIAYFDYWGAGTTVTVSS
# VL: DIQMTQSPSSLSASVGDRVTITCKASQDINSHLSWYQQKPGKAPKLLIYRANRLATGVPSRFSGSGSGTDFTFTISSLEYEDIATYYCLQYDEFPYTFGGGTKLEIKR
# B8: SIRP21 (antibody, human IgG4 S228P, kappa, V domains shown)
# VH: B7 VH with R72V
# VL: B7 VL
# B9: SIRP18 (antibody, human IgG4 S228P, kappa, V domains shown)
# VH: EVQLVQSGAEVKKPGESLKISCKGSGYSFTDYFLNWVRQMPGKGLEWMGRINPYNGDSFINQNFRDQVTISADKSISTAYLQWSSLKASDTAMYYCARGGYDGYFIAYFDYWGAGTTVTVSS
# VL: B7 VL
# B10: SIRP15 (antibody, human IgG4 S228P, kappa, V domains shown)
# VH: B7 VH with A16S, M70I, R72A, T74K, V79A
# VL: B7 VL
# B11: SIRP9 (antibody, V domains shown)
# VH: EVQLQESGAELVRPGASVKLSCKALGYTFTDYEIHWVKETPVYGLEWIGDIHPGSGGTANNQKFKGKATLTADKSSNTAYMELSSLTSEDSAVYYCTRAVSGYYAMDYWGQGTSVTVSS
# VL: DIQMTQSSSSFSGSLGDRLTINCKASEDIYDRVAWYQQKPGNAPRLLISGTASLETGVLSRFSGSGSGKDYTLSINGLQAEDVATYYCQQYWTTPWTFGGGTKLEIK
# B12: SIRP8 (antibody, V domains shown)
# VH: EVQLQESGGGLVKPGGSLKLSCAASGFTLSTYTMSWVRQTPEKRLEWVAIITSGDTYTYYPDSVKGRFTISRDNAKNTLYLQMSSLKSEDTGMYYCTRDRPLFHWGQGTTLTVST
# VL: QIVLTQSPAIMSASPGEKVTMTCSASSSVSYMYWYQQKPGSSPRLLIYDTSNLASGVPVRFSGSGSGTSYSLTISRMEAEDAATYYCQQWSSFPWTFGGGTKLEIK
# B13: SIRP7 (antibody, V domains shown)
# VH: EVQLQQSGPELVKPGASVKMSCRASGYTFSTYVMHWIKHRPGQGLEWIGYINPNNDGPNYNEKFKGKATLTSDISSSTAYMELSSLTSEDSAVYFCSRWDSYNSAAGFAYWGHGTLVTVSA
# VL: EIVLTQSPTTMAASPGEKITIICSASSSISSNFLHWYQQKPGFSPRFLIYRTSILASGVPTRFSGSGSGTSYSLTIDTMEAEDVATYYCQQGSGLPLTFGSGTKLEIK
# B14: SIRP2 (antibody, mouse IgG1, kappa, V domains shown)
# VH: EVKLVESGGGLVQPGGSLKLSCAASGFSFSGCTMSWIRQTPERRLEWVAYISNGGDITYYPDTVKGRFTISRDNAKNSLYLQMSSLKSEDTAMYYCARLDGYYYAMDFWGQGTSVTVSS
# VL: DILLTQSPAILSVSPGERVSFSCRASQSIGTSIHWYQQRTNGSPRLLIKYGSESISGIPSRFSGSGSGTDFTLSINSVESEDIADYYCQQSNTWPLTFGDGTKLELKR
# B15: SIRP10 (antibody, V domains shown)
# VH: EVQLQESGAELVRPGTSVKMSCKAAGYTFSNYLIGWIKQRPGHGLEWIGDIYPGDNNTNYNEKFRVKATLTADTSSNTAYMHLTSLTSEDSAIYYCAGGTDYDGFANWGQGTLVTVSA
# VL: ENVLTQSPAIMSASLGEKVTMSCRASSSVNYMYWYQQKSDASPKLWIYYTSKLAPGVPARFSGSGSGNSYSLTISSMEGEDAATYYCQQFTSSPFTFGSGTKLEIK
# Target: Fc tagged human SIRPα (ACRO #SIG-H5251, genotype variant 1) (human) (UniProt P78324)
# Assay: solid-phase ELISA on plate-coated Fc tagged human SIRPα; apparent Kd
# Sequence of Fc tagged human SIRPα (ACRO #SIG-H5251, genotype variant 1) (human) (P78324 31-370, change not shown): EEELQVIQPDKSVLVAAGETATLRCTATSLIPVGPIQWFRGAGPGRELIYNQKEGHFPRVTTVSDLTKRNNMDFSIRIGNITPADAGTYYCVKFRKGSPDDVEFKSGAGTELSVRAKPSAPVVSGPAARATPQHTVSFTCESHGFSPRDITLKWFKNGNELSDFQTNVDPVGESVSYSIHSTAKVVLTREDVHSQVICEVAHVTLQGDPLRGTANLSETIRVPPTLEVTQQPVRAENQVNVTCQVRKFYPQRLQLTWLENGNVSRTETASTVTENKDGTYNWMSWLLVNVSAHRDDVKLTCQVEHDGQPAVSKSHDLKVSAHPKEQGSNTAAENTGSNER
row,Kd,Binder
1,0.131 nM,B1
2,0.164 nM,B2
3,0.161 nM,B3
4,0.289 nM,B4
5,0.065 nM,B5
6,0.039 nM,B6
7,0.165 nM,B7
8,0.274 nM,B8
9,0.364 nM,B9
10,0.608 nM,B10
11,0.583 nM,B11
12,0.057 nM,B12
13,0.197 nM,B13
14,0.182 nM,B14
15,> 10 nM,B15
